Changes are numbered by the printed parent chain. Names and notes keep the numbering of the source.
Experiments:
Conditions in all cases: both partners purified
[1] = molecular target: T1, human transportin 1 (Trn1, residues 1-890) (human, UniProt Q92973-2 1-890); test: SPR; BIAcore 3000, 25°C; Trn1 immobilised on a CM5 chip by amine coupling (about 8600 RU); FUS-NLS injected at increasing concentrations, 50 µl/min; 20 mM HEPES pH 7.3, 110 mM potassium acetate, 2 mM magnesium acetate, 2 mM EGTA, 2 mM DTT, 10% glycerol, 0.005% Tween 20; 1:1 Langmuir fit
T1 construct: transportin 1 (Trn1), human, full-length, residues 1-890; numbers count on: the 890-residue form; Cloned in pGEX-4T-3 with a TEV site; clone was a gift from Y. M. Chook; source: E. coli BL21 (DE3), purified (glutathione Sepharose, TEV cleavage, HiTrap Q FF, Superdex 200)
T1 sequence (looked up): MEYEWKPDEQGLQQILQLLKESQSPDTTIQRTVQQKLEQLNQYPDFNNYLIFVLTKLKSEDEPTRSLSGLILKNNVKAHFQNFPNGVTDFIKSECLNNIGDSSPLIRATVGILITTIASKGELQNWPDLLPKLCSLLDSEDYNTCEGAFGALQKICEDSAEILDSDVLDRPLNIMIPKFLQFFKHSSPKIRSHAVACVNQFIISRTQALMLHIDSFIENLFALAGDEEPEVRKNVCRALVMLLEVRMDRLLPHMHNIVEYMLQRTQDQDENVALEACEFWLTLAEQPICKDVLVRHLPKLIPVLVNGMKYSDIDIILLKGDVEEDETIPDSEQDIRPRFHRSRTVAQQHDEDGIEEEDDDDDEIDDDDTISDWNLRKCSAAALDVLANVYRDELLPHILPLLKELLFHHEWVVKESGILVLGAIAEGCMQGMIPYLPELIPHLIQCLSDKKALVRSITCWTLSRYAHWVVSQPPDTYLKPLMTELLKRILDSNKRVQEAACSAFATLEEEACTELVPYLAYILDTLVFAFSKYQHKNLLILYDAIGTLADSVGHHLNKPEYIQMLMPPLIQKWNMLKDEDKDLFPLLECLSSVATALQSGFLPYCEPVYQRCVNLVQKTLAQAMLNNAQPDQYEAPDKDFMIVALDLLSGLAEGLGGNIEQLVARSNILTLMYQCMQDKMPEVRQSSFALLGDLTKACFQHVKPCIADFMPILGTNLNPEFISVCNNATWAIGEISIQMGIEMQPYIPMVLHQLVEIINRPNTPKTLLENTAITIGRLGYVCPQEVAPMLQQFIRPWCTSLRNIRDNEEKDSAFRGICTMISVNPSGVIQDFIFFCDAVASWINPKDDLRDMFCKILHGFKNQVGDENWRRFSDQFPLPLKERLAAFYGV

[2] = molecular target: T1, human transportin 1 (Trn1, residues …); test: SPR; BIAcore 3000, 25°C; Trn1 immobilised on a CM5 chip by amine coupling (about 8600 RU); same running buffer; kd too fast to be fit, KD from steady state equilibrium binding against the concentration of the injected protein
[3] = molecular target: T1, human transportin 1 (Trn1, residues …); test: SPR; BIAcore 3000, 25°C; Trn1 immobilised on a CM5 chip by amine coupling (about 8600 RU); FUS-NLS injected at increasing concentrations, 50 µl/min; 20 mM HEPES pH 7.3, 110 mM potassium acetate, 2 mM magnesium acetate, 2 mM EGTA, 2 mM DTT, 10% glycerol, 0.005% Tween 20; 1:1 Langmuir fit; remark: listed apart in the source

B1: nuclear localization sequence of human FUS (FUS-NLS, residues 495-526), wild type (domain or fragment, UniProt P35637 495-526, looked up)
chain: RGGRGGGDRGGFGPGKMDSRGEHRQDRRERPY
notes: Cloned in pGEX-6P-2; also called FUS-NLS(WT); WT; not shown: GST, N-terminal, cleaved
- Kd [1]: 1.7 nM
- koff [1]: 0.0037 s⁻¹
- kon [1]: 2.3e+06 M⁻¹ s⁻¹

B2: FUS-NLS(R518G) (domain or fragment, human, UniProt P35637 495-526, looked up)
chain: B1 chain with R24G
notes: ALS-associated mutation found in patients; made by site-directed mutagenesis; not shown: GST, N-terminal, cleaved
- Kd [2]: 150 nM

B3: FUS-NLS(G507D) (domain or fragment, human, UniProt P35637 495-526, looked up)
chain: B1 chain with G13D
notes: as for B2
- Kd [1]: 7.8 nM
- koff [1]: 0.044 s⁻¹
- kon [1]: 5.7e+06 M⁻¹ s⁻¹

B4: FUS-NLS(R518K) (domain or fragment, human, UniProt P35637 495-526, looked up)
chain: B1 chain with R24K
notes: as for B2
- Kd [1]: 13 nM
- koff [1]: 0.078 s⁻¹
- kon [1]: 6e+06 M⁻¹ s⁻¹

B5: FUS-NLS(R524S) (domain or fragment, human, UniProt P35637 495-526, looked up)
chain: B1 chain with R30S
notes: as for B2
- Kd [1]: 10 nM
- koff [1]: 0.058 s⁻¹
- kon [1]: 5.6e+06 M⁻¹ s⁻¹

B6: FUS-NLS(R514G) (domain or fragment, human, UniProt P35637 495-526, looked up)
chain: B1 chain with R20G
notes: as for B2
- Kd [2]: 67 nM

B7: FUS-NLS(H517P) (domain or fragment, human, UniProt P35637 495-526, looked up)
chain: B1 chain with H23P
notes: as for B2
- Kd [2]: 140 nM

B8: FUS-NLS(E523Y) (domain or fragment, human, UniProt P35637 495-526, looked up)
chain: B1 chain with E29Y
notes: Designed from the structure; not found in familial ALS patients; not shown: GST, N-terminal, cleaved
- binding result [3]: binds

B9: FUS-NLS(G515C) (domain or fragment, human, UniProt P35637 495-526, looked up)
chain: B1 chain with G21C
notes: as for B2
- Kd [1]: 2.8 nM
- koff [1]: 0.0051 s⁻¹
- kon [1]: 1.8e+06 M⁻¹ s⁻¹

B10: FUS-NLS(P525L) (domain or fragment, human, UniProt P35637 495-526, looked up)
chain: B1 chain with P31L
notes: as for B2
- Kd [2]: 1200 nM

B11: FUS-NLS(S513P) (domain or fragment, human, UniProt P35637 495-526, looked up)
chain: B1 chain with S19P
notes: as for B2
- Kd [1]: 2.4 nM
- koff [1]: 0.023 s⁻¹
- kon [1]: 9.4e+06 M⁻¹ s⁻¹

B12: FUS-NLS(K510E) (domain or fragment, human, UniProt P35637 495-526, looked up)
chain: B1 chain with K16E
notes: as for B2
- Kd [2]: 150 nM

B13: FUS-NLS(R522G) (domain or fragment, human, UniProt P35637 495-526, looked up)
chain: B1 chain with R28G
notes: as for B2
- Kd [2]: 350 nM

B14: FUS-NLS(Y526A) (domain or fragment, human, UniProt P35637 495-526, looked up)
chain: B1 chain with Y32A
notes: as for B8
- Kd [2]: 890 nM

B15: FUS-NLS(E523S) (domain or fragment, human, UniProt P35637 495-526, looked up)
chain: B1 chain with E29S
notes: as for B8
- Kd [1]: 2 nM
- koff [1]: 1.1e-05 s⁻¹
- kon [1]: 5500 M⁻¹ s⁻¹

B16: FUS-NLS(R521G) (domain or fragment, human, UniProt P35637 495-526, looked up)
chain: B1 chain with R27G
notes: as for B2
- Kd [1]: 25 nM
- koff [1]: 0.0034 s⁻¹
- kon [1]: 140000 M⁻¹ s⁻¹

Reference: article PMC3466232, “FUS-NLS/Transportin 1 Complex Structure Provides Insights into the Nuclear Targeting Mechanism of FUS and the Implications in ALS” (PLoS ONE, 2012)
